In general, stoichiometry N refers to the number of molecules, sites or subunits per partner or assembly.

Assay [1] concerns the target hexameric Aβ from CHO cells transfected with C99 carrying the Arctic (E22G) FAD mutation (human). Put plainly: SDS-PAGE and western blot of SDS-stable assemblies. On the technique in general: A western blot detects proteins with antibodies after separation by electrophoresis.
The target in assay [2] is hexameric Aβ from CHO cells transfected with C99 carrying the Flemish (A21G) FAD mutation (human). Put plainly: SDS-PAGE and western blot of SDS-stable assemblies.
For assay [3], the target named is C99-derived hexameric Aβ42 (cell-derived, from CHO cells transfected with C99) (human) (UniProt P05067). Put plainly: SDS-PAGE and western blot of SDS-stable assemblies.
Assay [4] has the same target. The assay is described as follows: GELFrEE 8100 electrophoretic fractionation with western blot.
In assay [5] the target is hexameric Aβ from CHO cells transfected with C99 carrying the Iowa (D23N) FAD mutation (human). Put plainly: SDS-PAGE and western blot of SDS-stable assemblies.
Assay [6] has as its target hexameric Aβ from CHO cells transfected with C99 carrying the Dutch (E22Q) FAD mutation (human). The assay is described as follows: SDS-PAGE and western blot of SDS-stable assemblies.
Assay [7] has as its target hexameric Aβ from CHO cells transfected with C99 carrying the Italian (E22K) FAD mutation (human). The assay is described as follows: SDS-PAGE and western blot of SDS-stable assemblies.
Assay [8] addresses assembly-impaired variant of Aβ42 from CHO cells transfected with vC42 (F19S, G37D) (human). The assay is described as follows: SDS-PAGE and western blot of SDS-stable assemblies.

Substance “hexameric Aβ from CHO cells transfected with C99 carrying the Arctic (E22G) FAD mutation (peptide)” had a stoichiometry N in assay [1] of 6.
In turn, “hexameric Aβ from CHO cells transfected with C99 carrying the Flemish (A21G) FAD mutation (peptide)” had a stoichiometry N in assay [2] of 6.
For the substance “C99-derived hexameric Aβ42 (cell-derived, from CHO cells transfected with C99) (from UniProt P05067 672-770) (peptide)”, the stoichiometry N in assay [3] and in assay [4] was 6 in each case.
In assay [5], “hexameric Aβ from CHO cells transfected with C99 carrying the Iowa (D23N) FAD mutation (peptide)” had a stoichiometry N of 6.
In the case of “hexameric Aβ from CHO cells transfected with C99 carrying the Dutch (E22Q) FAD mutation (peptide)”, in assay [6], the stoichiometry N was determined as 6.
In assay [7], “hexameric Aβ from CHO cells transfected with C99 carrying the Italian (E22K) FAD mutation (peptide)” returned a stoichiometry N of 6.
Substance “assembly-impaired variant of Aβ42 from CHO cells transfected with vC42 (F19S, G37D) (peptide)” displayed a stoichiometry N in assay [8] of 2.

The values are drawn from paper doi:10.1101/2020.12.15.422916.
